Assay results published in patent publication US20250144205A1, “COMPOSITIONS AND METHODS FOR TREATING INFECTIOUS DISEASES” (priority 2022, published 2025).

Assays:
[1] = system: TSE-induced lung injury (TSE-LI); assay: chronic tobacco smoke exposure induced lung injury (TSE-LI) in wild-type mice; assay type: in vivo; conditions: for MUC5AC (M5Ac) expression (lung mRNA by qPCR, IHC) / FOXA2 mRNA (qPCR) / surfactant protein-C (SP-C) mRNA (qPCR): WT mice with TSE-LI, 2.5 mg/kg IP 5 days a week for 4 weeks; for MUC5AC (M5Ac) expression (lung mRNA by qPCR, IHC): FIG. 12A, 12D; for FOXA2 mRNA (qPCR): FIG. 12B; for surfactant protein-C (SP-C) mRNA (qPCR): FIG. 12C; for chronic TS exposure (TSE) induced lung injury (TSE-LI): WT mice, 2.5 mg/kg IP 5 days a week for 4 weeks after 16 weeks TSE
Method: Recombinant full-length U5a protein (U5a^FL), extracellular domain of U5a^FL (U5a^ECD) and U5a^ECD-specific monoclonal antibody (U5a^mAb, the 17C9 1 anti-U5a antibody comprising the sequences of SEQ ID NOs. 204 and 211) mitigated chronic TS exposure (TSE) induced lung injury (TSE-LI) in wild-type (WT) mice. WT mice were kept in ambient AIR or exposed to tobacco smoke (TSE) for 4 h/day 5 days a week. After 16 weeks, WT mice with TSE-LI were left untreated (None) or treated with 2.5 mg/kg of U5a^FL, U5a^ECD and U5amAb 5 days a week for 4 weeks by IP injection. Total lung RNA were analyzed for MUC5AC (M5Ac) (FIG. 12A), FOXA2 (FIG. 12B) and surfactant protein-C(SP-C) (FIG. 12C) mRNA by qPCR. Lung sections of mice treated as in FIG. 12A were subjected to IHC analysis for M5Ac (FIG. 12D). We found increased expression of U5a in AECs and ATII cells in lungs of patients with COPD and mice with TSE-LI. […] In addition, increased surfactant protein-C(SP-C) indicates improved survival of ATII cells, which is otherwise reduced due to increased TSE-induced senescence and apoptosis of ATII cells seen in mice with TSE-LI left untreated.

rSARS-CoV-2/mCherry-Nluc = assay type: in vivo, K18 hACE2 transgenic mice; conditions: for virus titration in lungs (viral titers by plaque assay): 2.5 mg/kg i.p. once daily, compared to the mock groups, FIG. 8A; for body weight and survival: mouse, in vivo

Molecule | MUC5AC (M5Ac) expression (lung mRNA by qPCR, IHC) [1] | FOXA2 mRNA (qPCR) [1] | surfactant protein-C (SP-C) mRNA (qPCR) [1] | chronic TS exposure (TSE) induced lung injury (TSE-LI) [1] | virus titration in lungs (viral titers by plaque assay) (rSARS-CoV-2/mCherry-Nluc) | body weight and survival (rSARS-CoV-2/mCherry-Nluc)
U5a^FL: Recombinant full-length U5a protein (uncoordinated receptor 5A); full-length human UNC5A is SEQ ID NO: 5 (protein, listed as Homo sapiens) MAVRPGLWPALLGIVLAAWLRGSGAQQSATVANPVPGANPDLLPHFLVEPEDVYIVKNKPVLLVCKAVPATQIFFKCNGEWVRQVDHVIERSTDGSSGLPTMEVRINVSRQQVEKVFGLEEYWCQCVAWSSSGTTKSQKAYIRIAYLRKNFEQEPLAKEVSLEQGIVLPCRPPEGIPPAEVEWLRNEDLVDPSLDPNVYITREHSLVVRQARLADTANYTCVAKNIVARRRSASAAVIVYVDGSWSPWSKWSACGLDCTHWRSRECSDPAPRNGGEECQGTDLDTRNCTSDLCVHTASGPEDVALYVGLIAVAVCLVLLLLVLILVYCRKKEGLDSDVADSSILTSGFQPVSIKPSKADNPHLLTIQPDLSTTTTTYQGSLCPRQDGPSPKFQLTNGHLLSPLGGGRHTLHHSSPTSEAEEFVSRLSTQNYFRSLPRGTSNMTYGTFNFLGGRLMIPNTGISLLIPPDAIPRGKIYEIYLTLHKPEDVRLPLAGCQTLLSPIVSCGPPGVLLTRPVILAMDHCGEPSPDSWSLRLKKQSCEGSWEDVLHLGEEAPSHLYYCQLEASACYVFTEQLGRFALVGEALSVAAAKRLKLLLFAPVACTSLEYNIRVYCLHDTHDALKEVVQLEKQLGGQLIQEPRVLHFKDSYHNLRLSIHDVPSSLWKSKLLVSYQEIPFYHIWNGTQRYLHCTFTLERVSPSTSDLACKLWVWQVEGDGQSFSINFNITKDTRFAELLALESEAGVPALVGPSAFKIPFLIRQKIISSLDPPCRRGADWRTLAQKLHLDSHLSFFASKPSPTAMILNLWEARHFPNGNLSQLAAAVAGLGQPDAGLFTVSEAEC | significantly inhibits | inducing | increased | mitigated | – | –
U5a^mAb: U5a^ECD-specific monoclonal antibody, the 17C9 1 anti-U5a antibody comprising the sequences of SEQ ID NOs. 204 and 211 (antibody) heavy: QVQLQQPGAELVKPGASVKMSCKASGYTFTSYWITWVKQRPGQGLEWIGDIYPGSGSTTYNEKFKSKATLTVDTSSSTAYMQLSSLTSEDSAVYYCARRHYGSSSAWFAYWGQGTLVTVSAAKTTPPSVYPLAPGSAAQTNSMVTLGCLVKGYFPEPVTVTWNSGSLSSGVHTFPAVLQSDLYTLSSSVTVPSSTWPSQTVTCNVAHPASSTKVDKKIVPRDCGCKPCICTVPEVSSVFIFPPKPKDVLTITLTPKVTCVVVDISKDDPEVQFSWFVDDVEVHTAQTKPREEQINSTFRSVSELPIMHQDWLNGKEFKCRVNSAAFPAPIEKTISKTKGRPKAPQVYTIPPPKEQMAKDKVSLTCMITNFFPEDITVEWQWNGQPAENYKNTQPIMDTDGSYFVYSKLNVQKSNWEAGNTFTCSVLHEGLHNHHTEKSLSHSPGK light: DIQMTQTTSSLSASLGDRVTISCSASQGIRNYLNWYQQKPDGTVKLLIYYTSSLHSGVPSRFSGSGSGTDYSLTISNLEPEDIATYYCQQYSKLPFTFGSGTKLEIKRADAAPTVSIFPPSSEQLTSGGASVVCFLNNFYPKDINVKWKIDGSERQNGVLNSWTDQDSKDSTYSMSSTLTLTKDEYERHNSYTCEATHKTSTSPIVKSFNRNEC | significantly inhibits | inducing | increased | mitigated | – | –
M9^FL: recombinant full length MEGF9 (multiple EGF-like-domains-9); full-length human MEGF9 is SEQ ID NO: 1 (protein, listed as Homo sapiens) MNGGAERAMRSLPSLGGLALLCCAAAAAAAAVASAASAGNVTGGGGAAGQVDASPGPGLRGEPSHPFPRATAPTAQAPRTGPPRATVHRPLAATSPAQSPETTPLWATAGPSSTTFQAPLGPSPTTPPAAERTSTTSQAPTRPAPTTLSTTTGPAPTTPVATTVPAPTTPRTPTPDLPSSSNSSVLPTPPATEAPSSPPPEYVCNCSVVGSLNVNRCNQTTGQCECRPGYQGLHCETCKEGFYLNYTSGLCQPCDCSPHGALSIPCNSSGKCQCKVGVIGSICDRCQDGYYGFSKNGCLPCQCNNRSASCDALTGACLNCQENSKGNHCEECKEGFYQSPDATKECLRCPCSAVTSTGSCSIKSSELEPECDQCKDGYIGPNCNKCENGYYNFDSICRKCQCHGHVDPVKTPKICKPESGECINCLHNTTGFWCENCLEGYVHDLEGNCIKKEVILPTPEGSTILVSNASLTTSVPTPVINSTFTPTTLQTIFSVSTSENSTSALADVSWTQFNIIILTVIIIVVVLLMGFVGAVYMYREYQNRKLNAPFWTIELKEDNISFSSYHDSIPNADVSGLLEDDGNEVAPNGQLTLTTPIHNYKA | – | – | – | – | clear trend of decreased viral titers | remarkable improvement
M^9ECD: extracellular domain (ECD) fragment of recombinant M9 (MEGF9); ECD of MEGF9 given as SEQ ID NO: 102 (protein, listed as Homo sapiens) MGWSCIILFLVATATGVHSAAVASAASAGNVTGGGGAAGQVDASPGPGLRGEPSHPFPRATAPTAQAPRTGPPRATVHRPLAATSPAQSPETTPLWATAGPSSTTFQAPLGPSPTTPPAAERTSTTSQAPTRPAPTTLSTTTGPAPTTPVATTVPAPTTPRTPTPDLPSSSNSSVLPTPPATEAPSSPPPGHQWPVAKMPQKYLGKYACESNLKSKYLPLTQPVMNLRVSEAVKTEYVCNCSVVGSLNVNRCNQTTGQCECRPGYQGLHCETCKEGFYLNYTSGLCQPCDCSPHGALSIPCNSSGKCQCKVGVIGSICDRCQDGYYGFSKNGCLPCQCNNRSASCDALTGACLNCQENSKGNHCEECKEGFYQSPDATKECLRCPCSAVTSTGSCSIKSSELEPECDQCKDGYIGPNCNKCENGYYNFDSICRKCQCHGHVDPVKTPKICKPESGECINCLHNTTGFWCENCLEGYVHDLEGNCIKKEVILPTPEGSTILVSNASLTTSVPTPVINSTFTPTTLQTIFSVSTSENSTSALADVSWTQFN | – | – | – | – | clear trend of decreased viral titers | remarkable improvement
